Reference: patent US20150299252A1
Where no end group is shown, it is not given here.

Legend:
[1] = target: lectin SNA1 from Sambucus nigra (Sambucus nigra) (UniProt Q41358)
[2] = target: lectin MAA from Maackia amurensis (Maackia amurensis) (UniProt P0DKL3); assay: solid-phase competition; fetuin against SVH1C for MAA
[3] = target: lectin MAA from Maackia amurensis (Maackia amurensis) (UniProt P0DKL3); assay: solid-phase competition; fetuin against 100 pmoles of SVH1C on streptavidin for peroxidase-conjugated MAA
[4] = target: T1, lectin MAA from Maackia amurensis (Maackia amurensis), P0DKL3; assay: solid-phase assay, peptide titrated into wells containing bound lectin
T1 chain: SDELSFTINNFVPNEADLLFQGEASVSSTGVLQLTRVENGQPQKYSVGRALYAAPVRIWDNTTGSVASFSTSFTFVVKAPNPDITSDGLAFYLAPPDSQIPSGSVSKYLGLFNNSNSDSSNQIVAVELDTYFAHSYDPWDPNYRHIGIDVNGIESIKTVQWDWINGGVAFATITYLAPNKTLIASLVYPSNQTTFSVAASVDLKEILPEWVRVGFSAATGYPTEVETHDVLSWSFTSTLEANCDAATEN

[5] = target: lectin SNA1 from Sambucus nigra (Sambucus nigra), Q41358; assay: as above
lectin SNA1 from Sambucus nigra (Sambucus nigra), Q41358, sequence (Q41358 29-289 limits assumed, chain 1 of 2): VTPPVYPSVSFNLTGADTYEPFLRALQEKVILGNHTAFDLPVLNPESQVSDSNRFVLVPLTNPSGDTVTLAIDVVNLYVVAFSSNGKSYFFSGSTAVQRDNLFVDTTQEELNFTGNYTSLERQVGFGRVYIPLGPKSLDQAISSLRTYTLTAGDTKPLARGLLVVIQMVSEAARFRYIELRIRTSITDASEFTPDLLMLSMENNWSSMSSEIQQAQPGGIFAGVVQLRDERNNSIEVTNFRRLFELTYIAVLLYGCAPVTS
lectin SNA1 from Sambucus nigra (Sambucus nigra), Q41358, sequence (Q41358 309-570 limits assumed, chain 2 of 2): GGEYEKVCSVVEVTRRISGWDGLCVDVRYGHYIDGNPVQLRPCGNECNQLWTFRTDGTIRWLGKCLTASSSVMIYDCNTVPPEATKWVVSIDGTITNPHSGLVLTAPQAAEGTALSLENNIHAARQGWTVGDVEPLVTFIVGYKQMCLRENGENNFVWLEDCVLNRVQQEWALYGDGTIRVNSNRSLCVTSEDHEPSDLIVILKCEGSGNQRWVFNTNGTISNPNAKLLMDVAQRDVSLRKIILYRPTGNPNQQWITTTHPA

lectin SNA1 from Sambucus nigra (Sambucus nigra), sequence (Q41358 29-289 limits assumed, chain 1 of 2): as the sequence (Q41358 29-289 limits assumed, chain 1 of 2) above
lectin SNA1 from Sambucus nigra (Sambucus nigra), sequence (Q41358 309-570 limits assumed, chain 2 of 2): as the sequence (Q41358 309-570 limits assumed, chain 2 of 2) above
fetuin, sequence (P12763 19-359 limits assumed): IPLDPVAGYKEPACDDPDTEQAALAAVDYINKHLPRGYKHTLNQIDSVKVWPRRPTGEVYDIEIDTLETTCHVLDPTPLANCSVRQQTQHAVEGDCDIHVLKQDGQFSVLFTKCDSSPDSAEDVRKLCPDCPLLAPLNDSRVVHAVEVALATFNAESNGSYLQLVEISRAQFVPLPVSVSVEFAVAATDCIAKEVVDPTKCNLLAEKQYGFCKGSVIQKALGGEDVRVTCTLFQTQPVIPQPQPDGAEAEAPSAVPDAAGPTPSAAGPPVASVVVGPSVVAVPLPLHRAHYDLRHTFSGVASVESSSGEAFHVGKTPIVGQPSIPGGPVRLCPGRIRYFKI

Molecule	amount of fetuin giving essentially complete inhibition (pmoles of fetuin per well) [1]	percent inhibition at 100 pmoles fetuin per well [1] [%]	percent inhibition at a 5-fold molar excess of fetuin over peptide [2] [%]	amount of fetuin giving essentially complete inhibition (pmoles of fetuin per well) [3]	percent inhibition at 100 pmoles fetuin per well [3] [%]	amount of peptide at saturation [4] [pmol]	amount of peptide at saturation [5] [pmol]
fetuin (from UniProt P12763 19-359)	500	50	90	500	50		
biotinylated SVH1C (quadravalent, C-terminal ε-biotinyl-lysine amide) (modifications not checked) peptide: NPSHPLSGGGGS KKKK						100	100
